{"source": "paper PMC4716839", "about": "(eLife, 2015)", "binders": {"B1": {"name": "mouse Rpa heterotrimer (Rpa70, Rpa32, Rpa14) (complex)", "chain 1": "MVGHLSEGAIEVMIQQENTSIKPILQVINIRPISTGNRSPRYRLLMSDGLNTLSSFMLATQLNTLVEGGQLASNCVCQVHKFIVNTLKDGRKVVVLMDLEVMKSAEDVGLKIGNPVPYNEGYGQQQQQQQQQQQQAVPSPASAATPPASKPQPQNGSLGMGSTAAKAYGASKPFGKPAGTGLLQPSGGTQSKVVPIASLTPYQSKWTICARVTNKSQIRTWSNSRGEGKLFSLELVDESGEIRATAFNEQVDKFFPLIEVNKVYYFSKGALKIANKQFSAVKNDYEMTFNNETSVLPCEDGHHLPTVQFDFTGIGDLESKAKDALVDIIGICKSYEDSIKITVKSNNREVAKRNIYLMDMSGKVVTTTLWGEDADKFDGSRQPVMAIKGARVSDFGGRSLSVLSSSTVIVNPDIPEAYKLRGWFDSEGQALDGVSISDHRSGGAGGGNTNWKTLHEAKSENLGQGDKADYFSTVAAVVFLRKENCMYQACPTQDCNKKVIDQQNGLYRCEKCDREFPNFKYRMILSANIADFQENQWVTCFQESAEAILGQNTMYLGELKEKNEQAFEEVFQNANFRSFTFRIRVKLETYNDESRIKATVMDVKPVDFRDYGRRLIANIRKNM", "chain 2": "MWNSGFESFSSSTYGGAGGYTQSPGGFGSPTPSQAEKKSRVRAQHIVPCTISQLLSATLTDEVFRIGDVEISQVTIVGIIRHAEKAPTNIVYKIDDMTAPPMDVRQWVDTDDASGENAVVPPETYVKVAGHLRSFQNKKSLVAFKIIPLEDMNEFTAHILEVVNSHMMLSKPNSQASAGRPSMSNPGMSEPGNFSGNNFMPANGLTVVQNQVLNLIKACPRPEGLNFQDLRSQLQHMPVPSIKQAVDFLCNEGHIYSTVDDDHFKSTDAE", "chain 3": "MEDIMQLPKARVNASMLPQYIDRPVCFVGKLEKIHPTGKMFILSDGEGKNGTIELMEPLDEEISGIVEVVGKVTAKATVLCASYTLFKEDTNRFDLELYNEAVKIINELPQFFPVGLPQHE", "notes": "Rpa70 subunit of Replication Protein A, mouse; Rpa32 subunit of Replication Protein A, mouse; Rpa14 subunit of Replication Protein A, mouse; The GST tag on Rpa32 is called cleavable; also called heterotrimeric Rpa; full-length Rpa; source: Hi-5 insect cells co-infected with two baculoviruses, purified as described (Fan and Pavletich, 2012); copies: + +"}, "B2": {"name": "human Dna2 α1 (residues 1–20), polypeptide used in ITC (peptide, UniProt P51530 1-20, looked up)", "chain": "MEQLNELELLMEKSFWEEAE", "notes": "Dna2, human, residues 1-20 (α1 helix); also called Dna2 α1 helix; source: E. coli BL21DE3, purified"}, "B3": {"name": "GST-tagged mouse Dna2 OB (residues 21–122) (domain or fragment, UniProt Q6ZQJ5 21-122, looked up)", "chain": "VPRVELLRKKADALFPETVLSRGVDNRYLVLAVETSQNERGAEEKRLHVTASQDREHEVLCILRNGWSSVPVEPGDIVHLEGDCTSEPWIIDDDFGYFILYP", "notes": "Dna2, mouse, residues 21-122 (OB domain); Cloned into a pGEX-4T vector; also called GST-OB"}, "B4": {"name": "human Dna2 α1OB (residues 1–122) (domain or fragment, UniProt P51530 1-122, looked up)", "chain": "MEQLNELELLMEKSFWEEAELPAELFQKKVVASFPRTVLSTGMDNRYLVLAVNTVQNKEGNCEKRLVITASQSLENKELCILRNDWCSVPVEPGDIIHLEGDCTSDTWIIDKDFGYLILYPD", "notes": "Dna2, human, residues 1-122 (α1 helix and OB domain); source: E. coli BL21DE3, purified"}, "B5": {"name": "GST-tagged mouse Dna2 α1 (residues 1–20) (peptide, UniProt Q6ZQJ5 1-20, looked up)", "chain": "MEPLDELDLLLLEEDGGAEA", "notes": "Dna2, mouse, residues 1-20 (α1 helix); Cloned into a pGEX-4T vector; also called GST-α1"}, "B6": {"name": "GST-tagged mouse Dna2 α1OB (α1 helix and OB domain, residues 1 to 122) (domain or fragment, UniProt Q6ZQJ5 1-122, looked up)", "chain": "MEPLDELDLLLLEEDGGAEAVPRVELLRKKADALFPETVLSRGVDNRYLVLAVETSQNERGAEEKRLHVTASQDREHEVLCILRNGWSSVPVEPGDIVHLEGDCTSEPWIIDDDFGYFILYP", "notes": "Dna2 nuclease-helicase, mouse, residues 1-122 (α1 helix and OB domain); full-length mouse Dna2 has residues 1 to 1062; Cloned into a pGEX-4T vector; also called GST-α1OB"}}, "details_in_all_cases": "both partners purified", "key": {"[1]": {"molecular_target": "B6", "assay": "pull-down; GST pull-down as a1 with (dT)24 or (dT)8 ssDNA added; concentrations shown in the figure; bound Rpa70 quantified relative to the lane without DNA"}, "[2]": {"molecular_target": "T1, human Rpa70N (OBN domain of Rpa70, residues 1–120) (human, UniProt P27694 1-120)", "T1 construct": "Rpa70, human, residues 1-120 (OBN domain); Used in ITC and in the co-crystals; also called Rpa70 OBN; RPA70 OBN; source: E. coli BL21DE3, purified", "T1 sequence (P27694 1-120)": "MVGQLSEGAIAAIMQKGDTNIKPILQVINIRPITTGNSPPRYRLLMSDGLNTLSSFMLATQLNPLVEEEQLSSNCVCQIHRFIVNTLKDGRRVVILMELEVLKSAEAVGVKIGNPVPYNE", "assay": "ITC; MicroCal ITC200, 20°C, 20 mM HEPES, 80 mM NaCl, 0.2 mM TCEP, pH 7.5; human polypeptides"}, "[3]": {"molecular_target": "T2, mouse Rpa70AB (residues 191–431) (mouse, UniProt Q8VEE4 191-431)", "T2 construct": "Rpa70, mouse, residues 191-431 (DBD-A and DBD-B); also called Rpa70AB polypeptide; not shown: His6-SUMO, N-terminal, cleaved", "assay": "pull-down; GST-tagged mouse Dna2 fragment or GST (30 μM in Figure 4A) with an equal molar amount of Rpa or Rpa fragment; 20 mM Tris-HCl, 80 mM NaCl, 0.3 mM TCEP, 2% glycerol, pH 8.0, 4°C, 30 min, then glutathione beads; eluted with 20 mM glutathione, SDS-PAGE"}, "[4]": {"molecular_target": "T3, human Rpa70NAB (residues 1–422) (human, UniProt P27694 1-422)", "T3 construct": "Rpa70, human, residues 1-422 (OBN, DBD-A, DBD-B); source: E. coli BL21DE3, purified", "T3 sequence (P27694 1-422)": "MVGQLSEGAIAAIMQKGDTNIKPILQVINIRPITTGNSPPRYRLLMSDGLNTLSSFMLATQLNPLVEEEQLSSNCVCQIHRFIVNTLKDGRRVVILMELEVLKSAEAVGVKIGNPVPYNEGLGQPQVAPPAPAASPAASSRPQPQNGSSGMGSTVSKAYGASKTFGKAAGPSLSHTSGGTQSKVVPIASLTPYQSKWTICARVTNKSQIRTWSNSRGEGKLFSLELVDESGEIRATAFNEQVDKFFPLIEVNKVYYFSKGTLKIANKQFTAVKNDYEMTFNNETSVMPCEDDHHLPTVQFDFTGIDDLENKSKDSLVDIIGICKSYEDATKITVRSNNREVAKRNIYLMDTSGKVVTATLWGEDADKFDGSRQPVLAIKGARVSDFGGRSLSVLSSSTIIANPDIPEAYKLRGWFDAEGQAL", "assay": "ITC; MicroCal ITC200, 20°C, 20 mM HEPES, 80 mM NaCl, 0.2 mM TCEP, pH 7.5; human polypeptides"}, "[5]": {"molecular_target": "T4, mouse Rpa70N (residues 1–122) (mouse, UniProt Q8VEE4 1-122)", "T4 construct": "Rpa70, mouse, residues 1-122 (OBN domain); also called Rpa70N polypeptide; not shown: His6-SUMO, N-terminal, cleaved", "T4 sequence (looked up)": "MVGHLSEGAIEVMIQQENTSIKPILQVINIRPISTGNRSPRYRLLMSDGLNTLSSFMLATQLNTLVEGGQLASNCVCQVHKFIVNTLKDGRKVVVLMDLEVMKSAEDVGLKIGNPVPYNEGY", "assay": "pull-down; GST-tagged mouse Dna2 fragment or GST (30 μM in Figure 4A) with an equal molar amount of Rpa or Rpa fragment; 20 mM Tris-HCl, 80 mM NaCl, 0.3 mM TCEP, 2% glycerol, pH 8.0, 4°C, 30 min, then glutathione beads; eluted with 20 mM glutathione, SDS-PAGE"}, "[6]": {"molecular_target": "B1", "assay": "pull-down; GST-tagged mouse Dna2 fragment or GST (30 μM in Figure 4A) with an equal molar amount of Rpa or Rpa fragment; 20 mM Tris-HCl, 80 mM NaCl, 0.3 mM TCEP, 2% glycerol, pH 8.0, 4°C, 30 min, then glutathione beads; eluted with 20 mM glutathione, SDS-PAGE"}, "[7]": {"molecular_target": "T5, mouse Rpa70NAB (Rpa70 fragment with the OBN, DBD-A and DBD-B domains, residues 1 to 431) (mouse, UniProt Q8VEE4 1-431)", "T5 construct": "Rpa70, mouse, residues 1-431 (OBN, DBD-A, DBD-B); not shown: His6-SUMO, N-terminal, cleaved", "assay": "pull-down; GST-tagged mouse Dna2 fragment or GST (30 μM in Figure 4A) with an equal molar amount of Rpa or Rpa fragment; 20 mM Tris-HCl, 80 mM NaCl, 0.3 mM TCEP, 2% glycerol, pH 8.0, 4°C, 30 min, then glutathione beads; eluted with 20 mM glutathione, SDS-PAGE"}}}
{"binder": "B1", "values": [{"measurement": "fold reduction of bound Rpa by one molar equivalent of (dT)24 ssDNA", "setting": "[1]", "result": "~4", "unit": "fold"}]}
{"binder": "B2", "values": [{"measurement": "Kd", "setting": "[2]", "result": "34 ± 7", "unit": "µM"}]}
{"binder": "B3", "values": [{"measurement": "binding result", "setting": "[3]", "result": "binds"}]}
{"binder": "B4", "values": [{"measurement": "Kd", "setting": "[4]", "result": "12 ± 1", "unit": "µM"}]}
{"binder": "B5", "values": [{"measurement": "binding result", "setting": "[5]", "result": "binds"}]}
{"binder": "B6", "values": [{"measurement": "binding result", "setting": "[6]", "result": "binds"}, {"measurement": "binding result", "setting": "[7]", "result": "binds"}]}
